This note sets out measurements from paper PMC13278974, “Nucleophagy removes cytotoxic trapped PARP1” (Nature Cell Biology, 2026).

The assay has as its target T1, His–PARP1, full length, recombinant (called GFP-PARP1 / PARP1–GFP in the results and legend) (UniProt P09874 1-1014).
T1 construct: PARP1, full length, cloned into NcoI and BamHI sites of pNIC28; The methods describe only His–PARP1 from pNIC28 with no GFP; Whether GFP was on the protein is open; It was held on PARP1-trap beads; also called pNIC28–PARP1; source: E. coli Rosetta (DE3), purified (HisTrap, SEC Superdex 200)
Kind of assay: pull-down; PARP1 (2.5 µM) held on PARP1-trap beads, TEX264 (2.5 µM) added in 50 mM HEPES pH 7.4, 500 mM NaCl, 0.01% Triton X-100, 1 mM TCEP, 2 h at 4 °C; washes with 0.1% Triton X-100; western blot. The following applies: both partners purified. (In general: A western blot detects proteins with antibodies after separation by electrophoresis.)

T1 sequence (P09874 whole entry): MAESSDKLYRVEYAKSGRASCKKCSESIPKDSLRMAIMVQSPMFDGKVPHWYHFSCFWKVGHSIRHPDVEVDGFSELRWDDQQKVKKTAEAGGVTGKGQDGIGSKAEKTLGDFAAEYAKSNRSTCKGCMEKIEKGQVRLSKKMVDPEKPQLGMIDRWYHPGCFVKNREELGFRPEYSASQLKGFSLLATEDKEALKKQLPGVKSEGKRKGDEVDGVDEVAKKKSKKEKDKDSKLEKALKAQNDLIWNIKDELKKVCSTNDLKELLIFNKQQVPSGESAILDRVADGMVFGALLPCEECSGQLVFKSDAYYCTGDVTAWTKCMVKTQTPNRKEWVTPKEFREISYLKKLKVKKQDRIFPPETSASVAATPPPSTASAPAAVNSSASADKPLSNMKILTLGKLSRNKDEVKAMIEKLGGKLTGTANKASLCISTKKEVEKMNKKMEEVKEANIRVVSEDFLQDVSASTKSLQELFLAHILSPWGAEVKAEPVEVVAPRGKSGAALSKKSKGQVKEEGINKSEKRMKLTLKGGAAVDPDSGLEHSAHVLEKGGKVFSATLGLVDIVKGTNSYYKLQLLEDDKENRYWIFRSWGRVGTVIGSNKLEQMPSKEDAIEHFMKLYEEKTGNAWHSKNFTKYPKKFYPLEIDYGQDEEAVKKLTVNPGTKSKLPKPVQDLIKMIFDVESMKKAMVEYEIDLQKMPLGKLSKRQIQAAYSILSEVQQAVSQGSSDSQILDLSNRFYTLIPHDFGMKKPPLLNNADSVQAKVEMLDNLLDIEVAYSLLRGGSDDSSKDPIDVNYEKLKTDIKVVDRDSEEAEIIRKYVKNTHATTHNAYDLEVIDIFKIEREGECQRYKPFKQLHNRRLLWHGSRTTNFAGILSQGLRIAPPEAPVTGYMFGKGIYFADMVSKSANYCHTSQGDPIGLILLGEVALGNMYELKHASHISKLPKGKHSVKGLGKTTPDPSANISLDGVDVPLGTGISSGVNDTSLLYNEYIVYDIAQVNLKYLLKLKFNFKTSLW

B1: His–TEX264 (34-313) (domain or fragment, UniProt Q9Y6I9 34-313, looked up)
chain: VEVSAGSPPIRNVTVAYKFHMGLYGETGRLFTESCSISPKLRSIAVYYDNPHMVPPDKCRCAVGSILSEGEESPSPELIDLYQKFGFKVFSFPAPSHVVTATFPYTTILSIWLATRRVHPALDTYIKERKLCAYPRLEIYQEDQIHFMCPLARQGDFYVPEMKETEWKWRGLVEAIDTQVDGTGADTMSDTSSVSLEVSPGSRETSAATLSPGASSRGWDDGDTRSEHSYSESGASGSSFEELDLEGEGPLGESRLDPGTEPLGTTKWLWEPTAPEKGKE
notes: the printed UniProt entry Q9Y6I9 is the human protein; The longest recombinant TEX264 described in the methods; also called TEX264^WT (variant 1); source: E. coli Rosetta (DE3), pCold cold shock system, purified (HiTrap Q FF, SEC Superdex 200)
With B1, the binding result is recorded as “binds”.

B2: His–TEX264–Cter (186-313) (domain or fragment, UniProt Q9Y6I9 186-313, looked up)
chain: RQGDFYVPEMKETEWKWRGLVEAIDTQVDGTGADTMSDTSSVSLEVSPGSRETSAATLSPGASSRGWDDGDTRSEHSYSESGASGSSFEELDLEGEGPLGESRLDPGTEPLGTTKWLWEPTAPEKGKE
notes: also called C-terminal half of TEX264; variant 2
For B2, the binding result is on record as “binds”.
